From paper PMC6336734

Molecular target: Recombinant PP35 gp156 tail spike protein (Dickeya bacteriophage PP35)
Test: SEC

## Recombinant PP35 gp156 tail spike protein (natural protein)
  stoichiometry N: 3
